Reference: article doi:10.1101/625400, “Massively parallel reporter assays combined with cell-type specific eQTL informed multiple melanoma loci and identified a pleiotropic function of HIV-1 restriction gene, MX2, in melanoma promotion”

Target: YY1 full-length recombinant (Active Motif 31332) (UniProt P25490 1-414)
Test: EMSA; 100-750 ng YY1, 10 mM Mg2+; EMSA: 10 mM Tris pH 7.5, 50 mM KCl, 1 mM DTT, 10 mM MgCl2, 4 C, 30 min (poly d(I-C) with nuclear extract)
Details: protein: commercial; label: 5' biotin (both strands); blunt

YY1 full-length recombinant (Active Motif 31332), sequence (P25490 whole entry): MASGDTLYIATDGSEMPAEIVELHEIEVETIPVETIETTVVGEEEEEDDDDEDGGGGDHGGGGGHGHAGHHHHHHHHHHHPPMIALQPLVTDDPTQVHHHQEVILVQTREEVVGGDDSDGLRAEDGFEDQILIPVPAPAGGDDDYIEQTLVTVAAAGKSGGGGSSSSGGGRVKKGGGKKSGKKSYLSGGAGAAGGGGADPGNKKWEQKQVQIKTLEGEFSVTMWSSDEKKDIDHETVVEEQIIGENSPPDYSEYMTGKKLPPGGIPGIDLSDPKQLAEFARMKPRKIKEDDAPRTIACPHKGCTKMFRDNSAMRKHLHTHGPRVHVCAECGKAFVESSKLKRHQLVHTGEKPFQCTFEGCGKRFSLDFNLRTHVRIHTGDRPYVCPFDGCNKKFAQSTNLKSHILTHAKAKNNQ

B1: rs398206 A allele EMSA probe (dsDNA)
DNA 1: GTCCGTCCCAACATGGCGGGT
DNA 2: ACCCGCCATGTTGGGACGGAC
  binding result: binds
